This series deals with p53 WT (UniProt P04637 P04637:1-393). The series is described as follows: EMSA; GST-p53 purified from bacteria. Particulars: tags: GST; chain copies: 4; label: biotin. A general note: Mobility shift assays separate free from complexed probe on a gel.
p53 WT, sequence (P04637 whole entry, one chain of several): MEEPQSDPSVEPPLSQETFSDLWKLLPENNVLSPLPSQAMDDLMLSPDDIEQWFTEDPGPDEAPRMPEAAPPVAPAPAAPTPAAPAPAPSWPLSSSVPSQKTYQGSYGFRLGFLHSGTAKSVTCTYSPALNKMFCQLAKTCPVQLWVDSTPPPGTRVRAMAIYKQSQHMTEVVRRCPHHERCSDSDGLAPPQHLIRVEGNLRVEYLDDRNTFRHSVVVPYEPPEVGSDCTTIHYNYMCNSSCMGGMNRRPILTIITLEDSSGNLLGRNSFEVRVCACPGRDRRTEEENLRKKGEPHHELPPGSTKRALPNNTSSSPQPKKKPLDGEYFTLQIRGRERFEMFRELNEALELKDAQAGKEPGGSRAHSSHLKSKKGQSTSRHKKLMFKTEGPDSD

Method: For supershift assay, anti-p53 antibodies were added into the cell nuclear extract mixed with the biotin-labeled probes and the mixture were incubated with for 1 hour at room temperature before loading into 6% of non-denatured polyacrylamide gel.

B1: CTNNB1 probe 1 (MP53BS) (dsDNA)
DNA 1: GCCCCCTCGCGCCCCGCCCCTTGTC
DNA 2: GACAAGGGGCGGGGCGCGAGGGGGC
Turning to B1, the binding result is “no binding”.

For the origin of these results see patent US20240190903, “COMPOUNDS FOR PROGRAMMABLE PROTEIN DEGRADATION AND METHODS OF USE FOR THE TREATMENT OF DISEASE” (Mayo Foundation for Medical Education and Research, published 2024).
